Results: paper PMC7530888 (Nucleic Acids Research, 2020)

Columns and labels:
MtbXthA [1] = experiment: Effect on AP-endonuclease activity of MtbXthA; format: biochemical, M. tuberculosis; conditions: N1, MtbXthA 10 nM, added protein 5-100 nM; pH 7.8, 37°C, 10 min
[2] = format: physicochemical, M. tuberculosis; conditions: Superdex 200 increase 10/30; pH 8.0; calibrated with protein standards
[3] = system: apurinic/ apyrimidinic DNA (AP-DNA) substrate (N1); experiment: AP-endonuclease assay on THF AP-DNA; format: biochemical; conditions: no MtbXthA
MtbXthA [4] = experiment: SEC co-elution with MtbXthA; format: binding, M. tuberculosis; conditions: Superdex 200; pH 8.0; SDS-PAGE of fractions
[5] = system: nicked duplex DNA substrate (L2); experiment: Ligation of nicked AP-DNA with 5′p-THF; format: biochemical; conditions: L2 10 nM, MtbLigA 0.01-20 nM
mimic DNA substrate (L3) = experiment: Ligation of true incised abasic site mimic with 5′-dRP; format: biochemical; conditions: L3 treated with uracil DNA glycosylase; MtbLigA 0.01-20 nM
[6] = system: THF containing AP-DNA (N1); experiment: Gel shift assay, THF AP-DNA; format: binding; conditions: N1 10 nM, MtbLigA 0-40 µM
[7] = Small angle X-ray scattering; format: physicochemical, M. tuberculosis; conditions: from P(r); for Dmax: BM29 ESRF, 10°C, pH 8.0
MtbXthA^ID = experiment: Effect on endonuclease activity of MtbXthA^ID; format: biochemical, M. tuberculosis; conditions: N1 20 nM, MtbXthA^ID 10 nM, MtbLigA 5-100 nM
[8] = system: nicked duplex DNA substrate (L1); experiment: In vitro ligation of nicked duplex DNA; format: biochemical; conditions: L1 10 nM, MtbLigA 5 nM alone; 50 μM NAD^+, pH 7.8, 37°C, 3 min; SD ±2.5

Row | Substance | effect on AP-endonuclease activity of MtbXthA (MtbXthA [1]) | Stoke's radii [2] [nm] | effect on AP-DNA substrate alone (in words) [3] | interaction with MtbXthA by SEC (MtbXthA [4]) | ligation of nicked AP-DNA (in words) [5] | ligated product (in words) (mimic DNA substrate (L3)) | complex with THF AP-DNA (in words) [6] | Dmax [7] [nm] | Dmax in presence of nicked DNA ([7]; presence of nicked DNA substrate (S1)) [nm] | effect on incision activity of MtbXthA^ID (MtbXthA^ID) | DNA ligation [8] [%]
1 | BSA: BSA, control for macromolecular crowding [reference compound] | exerted no effect | – | – | – | – | – | – | – | – | – | –
2 | MtbLigA: M. tuberculosis NAD^+-dependent DNA ligase A, full-length | progressive decrease in product formation | 4.02 | no effect on the AP-DNA substrate | co-eluted | could ligate the nicked AP-DNA | progressive increase in the ligated product | did not form a complex with THF containing AP-DNA | 16.7 | 14.79 | reduction in incision activity | 75
3 | MtbLigA+Nicked DNA: MtbLigA in complex with 27-mer nicked DNA (S1) | – | 3.19 | – | – | – | – | – | 14.79 | – | – | –
